Measurements from the supplement of paper PMC7877785.
± gives the uncertainty stated by the source.

Assay: self-splicing fitness, log relative to wild type (ln ratio); higher = more splicing; Tetrahymena group I intron in knt gene, E. coli kanamycin selection, DiMSum; sequences stand for … in CUCUCU…GGAGGGAAAAGUUAUCAGGCAUGCACCUGGUAGCUAGUCUUUAAACCAAUAGAUUGCAUCGGUUUAAAAGGCAAGACCGUCAAAUUGCGGGAAAGGGGUCAACAGCCGUUCAGUACCAAGUCUCAGGGGAAACUUUGAGAUGGCCUUGCAAAGGGUAUGGUAAUAAGCUGACGGACAUGGUCCUAACCACGCAGCCAAGUCCUAAGUCAACAGAUCUUCUGUUGAUAUGGAUGCAGUUCACAGACUAAAUGUCGGUCGGGGAAGAUGUAUUCUUCUCAUAAGAUAUAGUCGGACCUCUCCUUAAUGGGAGCUAGCGGAUGAAGUGAUGCAACACUGGAGCCGCUGGGAACUAAUUUGUAUGCGAAAGUAUAUUGAUUAGUUUUGGAGUACUCGUGGUCG
How it was run: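 A randomised library covering all eight P1ex-region intron nucleotides was built with the intron in the knt kanamycin-resistance gene on pET-22b(+) and held in E. coli BL21(DE3). Cells were grown overnight at 37°C or 30°C on LB agar, with or without 25 μg/mL kanamycin, plus 100 μg/mL carbenicillin, 50 μM IPTG and 0.2% rhamnose, and pooled colonies were amplicon-sequenced on an Illumina HiSeq 2500. DiMSum fitness is the error-weighted combination of wild-type-normalised replicate fold changes, kanamycin versus none.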

Sequence | self-splicing fitness (ln) (30 °C) | self-splicing fitness (ln) (37 °C)
ACGGAGCAAUAUUACGACCU | -1.69 ± 0.2 | -1.34 ± 0.25
ACGGAGCAAUAUUACGACGC | -1.26 ± 0.15 | -1.11 ± 0.17
ACGGAGCAAUAUUACGAGAC | -0.64 ± 0.18 | 
ACGGAGCAAUAUUACGAUCU | -2.61 ± 0.14 | -1.37 ± 0.11
ACGGAGCAAUAUUACGAUGC | -3.69 ± 0.43 | -1.74 ± 0.29
ACGGAGCAAUAUUACGCAUU | -3.43 ± 0.43 | -2.85 ± 0.34
ACGGAGCAAUAUUACGCGUU |  | -1.9 ± 0.21
ACGGAGCAAUAUUACGCUCA | -1.04 ± 0.19 | -0.0662 ± 0.3
ACGGAGCAAUAUUACGCUGG | -3.77 ± 0.29 | -1.2 ± 0.18
ACGGAGCAAUAUUACGGAAU | -1.57 ± 0.39 | -2.5 ± 0.45
ACGGAGCAAUAUUACGGAUA | -3.27 ± 0.33 | -2.61 ± 0.42
ACGGAGCAAUAUUACGGAUG | -2.66 ± 0.31 | -1.17 ± 0.28
ACGGAGCAAUAUUACGGCCU | -2.12 ± 0.17 | -1.2 ± 0.21
ACGGAGCAAUAUUACGGUAA | -2.95 ± 0.49 | -3.1 ± 0.28
ACGGAGCAAUAUUACGGUCA | -3.14 ± 0.3 | -1.35 ± 0.18
ACGGAGCAAUAUUACGGUGU | -3.78 ± 0.2 | -2.35 ± 0.16
ACGGAGCAAUAUUACGUAAA |  | -1.27 ± 0.35
ACGGAGCAAUAUUACGUAGA | -4.18 ± 0.31 | -2.41 ± 0.24
ACGGAGCAAUAUUACGUAGG | -3.48 ± 0.26 | 
ACGGAGCAAUAUUACGUAUA | -2.42 ± 0.18 | -1.86 ± 0.25
ACGGAGCAAUAUUACGUGCG | -2.63 ± 0.17 | -1.79 ± 0.18
ACGGAGCAAUAUUACGUUGG | -3.62 ± 0.23 | -2.05 ± 0.17
ACGUAGCAAUAUUACGAAAU | -2.28 ± 0.19 | -1.3 ± 0.26
ACGUAGCAAUAUUACGAACC | -1.44 ± 0.11 | -0.279 ± 0.15
ACGUAGCAAUAUUACGACGA | 0.179 ± 0.11 | -0.0557 ± 0.12

Sequence | self-splicing fitness (ln) (30 °C) | self-splicing fitness (ln) (37 °C)
ACGUAGCAAUAUUACGAGAG | -2.93 ± 0.14 | -2.97 ± 0.23
ACGUAGCAAUAUUACGAGGA | -2.78 ± 0.33 | -2.75 ± 0.38
ACGUAGCAAUAUUACGCAAC | -2.74 ± 0.31 | -2.17 ± 0.35
ACGUAGCAAUAUUACGCACU | -1.46 ± 0.18 | -0.549 ± 0.23
ACGUAGCAAUAUUACGCCCC | -1.38 ± 0.27 | -1.28 ± 0.29
ACGUAGCAAUAUUACGCCUU | -1.42 ± 0.064 | -0.00228 ± 0.076
ACGUAGCAAUAUUACGCGCG | -1.28 ± 0.15 | -0.103 ± 0.18
ACGUAGCAAUAUUACGCUCA | -0.72 ± 0.12 | 0.189 ± 0.11
ACGUAGCAAUAUUACGGACA | -1.1 ± 0.083 | -0.739 ± 0.092
ACGUAGCAAUAUUACGGCCC | -0.341 ± 0.15 | 0.0459 ± 0.25
ACGUAGCAAUAUUACGGGAA | -1.95 ± 0.2 | -3.19 ± 0.37
ACGUAGCAAUAUUACGGGGG | -3.84 ± 0.2 | -2.44 ± 0.16
ACGUAGCAAUAUUACGGGUA | -1.29 ± 0.13 | -0.928 ± 0.12
ACGUAGCAAUAUUACGGGUU | -3.54 ± 0.2 | -2.07 ± 0.21
ACGUAGCAAUAUUACGGUUA | -0.772 ± 0.091 | -0.0368 ± 0.092
ACGUAGCAAUAUUACGUCAG | -3.39 ± 0.18 | -2.34 ± 0.2
ACGUAGCAAUAUUACGUGGG | -3.6 ± 0.16 | -3.07 ± 0.18
ACUAAGCAAUAUUACGACUU | -0.429 ± 0.093 | 0.924 ± 0.12
ACUAAGCAAUAUUACGAUUA | -0.928 ± 0.12 | -0.502 ± 0.1
ACUAAGCAAUAUUACGCCUA | -1.41 ± 0.13 | -0.734 ± 0.13
ACUAAGCAAUAUUACGCUCG | -0.345 ± 0.09 | -0.528 ± 0.11
ACUAAGCAAUAUUACGCUGA | -2.16 ± 0.17 | -1.31 ± 0.15
ACUAAGCAAUAUUACGGAAA | -2.78 ± 0.37 | -1.7 ± 0.23
ACUAAGCAAUAUUACGGAUC | -2.21 ± 0.13 | -1.3 ± 0.14
ACUAAGCAAUAUUACGGCGC | -0.144 ± 0.099 | -0.477 ± 0.096

Sequence | self-splicing fitness (ln) (30 °C) | self-splicing fitness (ln) (37 °C)
ACUAAGCAAUAUUACGGGAU | -2.17 ± 0.073 | -1.3 ± 0.097
ACUAAGCAAUAUUACGGUAU | -3.24 ± 0.17 | -1.73 ± 0.13
ACUAAGCAAUAUUACGUAAC | -4.39 ± 0.26 | -2.48 ± 0.24
ACUAAGCAAUAUUACGUUCG | -1.06 ± 0.074 | -0.408 ± 0.092
ACUAAGCAAUAUUACGUUUU | -2.55 ± 0.093 | -1.54 ± 0.1
ACUCAGCAAUAUUACGAAUA | -1.99 ± 0.14 | -0.941 ± 0.15
ACUCAGCAAUAUUACGACCA | -1.19 ± 0.084 | -0.64 ± 0.12
ACUCAGCAAUAUUACGACCC | -0.845 ± 0.19 | -2.22 ± 0.22
ACUCAGCAAUAUUACGACUC | -0.493 ± 0.054 | -0.0647 ± 0.068
ACUCAGCAAUAUUACGCAUC | -2.72 ± 0.15 | -1.48 ± 0.11
ACUCAGCAAUAUUACGCCAA | -1.12 ± 0.17 | -2.5 ± 0.21
ACUCAGCAAUAUUACGCGAC | -2.16 ± 0.14 | -1.85 ± 0.15
ACUCAGCAAUAUUACGCGCU | -1.41 ± 0.14 | -0.1 ± 0.16
ACUCAGCAAUAUUACGCGGC | -3.2 ± 0.25 | 
ACUCAGCAAUAUUACGCUCU | -0.15 ± 0.067 | 0.559 ± 0.094
ACUCAGCAAUAUUACGCUUA | -1.14 ± 0.14 | -0.0124 ± 0.12
ACUCAGCAAUAUUACGGCAA | -1.24 ± 0.094 | -0.795 ± 0.099
ACUCAGCAAUAUUACGGCCC | -1.32 ± 0.15 | -0.343 ± 0.19
ACUCAGCAAUAUUACGGCCU | -0.0739 ± 0.079 | -0.0329 ± 0.099
ACUCAGCAAUAUUACGGCUA | -0.553 ± 0.089 | 0.149 ± 0.093
ACUCAGCAAUAUUACGGGCU | -0.98 ± 0.067 | -0.954 ± 0.095
ACUCAGCAAUAUUACGGGUU | -3.64 ± 0.17 | -2.37 ± 0.19
ACUCAGCAAUAUUACGGUGU | -2.56 ± 0.085 | -1.34 ± 0.079
ACUCAGCAAUAUUACGGUUG | -4.32 ± 0.17 | -2.77 ± 0.18
ACUCAGCAAUAUUACGUAUA | -2.19 ± 0.11 | -1.11 ± 0.1

Sequence | self-splicing fitness (ln) (30 °C) | self-splicing fitness (ln) (37 °C)
ACUCAGCAAUAUUACGUCAC | -3.57 ± 0.15 | -1.97 ± 0.15
ACUCAGCAAUAUUACGUCAG | -2.31 ± 0.1 | -2.68 ± 0.17
ACUCAGCAAUAUUACGUGGC | -3.04 ± 0.14 | -2.9 ± 0.17
ACUCAGCAAUAUUACGUGGG | -3.7 ± 0.18 | -2.9 ± 0.2
ACUCAGCAAUAUUACGUGUC | -3.74 ± 0.16 | -2.21 ± 0.17
ACUCAGCAAUAUUACGUGUU | -3.14 ± 0.1 | -1.28 ± 0.088
ACUGAGCAAUAUUACGACAA | -2.96 ± 0.2 | -2.4 ± 0.23
ACUGAGCAAUAUUACGACGA | -1.3 ± 0.13 | -0.569 ± 0.12
ACUGAGCAAUAUUACGACUG | -3.2 ± 0.34 | -1.68 ± 0.23
ACUGAGCAAUAUUACGACUU | -1.4 ± 0.11 | -0.511 ± 0.14
ACUGAGCAAUAUUACGAUUA | -3.39 ± 0.3 | -1.78 ± 0.18
ACUGAGCAAUAUUACGCAAA | -2.29 ± 0.38 | -1.93 ± 0.34
ACUGAGCAAUAUUACGCACU | -0.721 ± 0.13 | -0.386 ± 0.17
ACUGAGCAAUAUUACGCCCC | -2.6 ± 0.34 | 
ACUGAGCAAUAUUACGCCGA | -3.61 ± 0.47 | -1.33 ± 0.23
ACUGAGCAAUAUUACGCCGG | -2.48 ± 0.3 | 
ACUGAGCAAUAUUACGCGCG | -1.14 ± 0.11 | -0.367 ± 0.12
ACUGAGCAAUAUUACGCUAC | -3.24 ± 0.24 | 
ACUGAGCAAUAUUACGCUGC |  | -1.98 ± 0.33
ACUGAGCAAUAUUACGCUUG | -3.28 ± 0.3 | -2.75 ± 0.31
ACUGAGCAAUAUUACGGAAU | -3.39 ± 0.35 | -1.87 ± 0.23
ACUGAGCAAUAUUACGGAUC |  | -1.91 ± 0.35
ACUGAGCAAUAUUACGGCAU | -0.643 ± 0.071 | -0.708 ± 0.1
